From the supplement of paper PMC5998384

Tests used:
[1] = tested on: HeLa Kyoto; test: solubility in G1/S (NP-40 vs SDS abundance) (log2 ratio); higher = more soluble; details: cell cycle stage: G1/S
[2] = tested on: HeLa Kyoto; test: solubility change mitosis vs G1/S (difference of NP-40 vs SDS log2 ratios) (log2 ratio difference); higher = more soluble in mitosis
[3] = tested on: HeLa Kyoto; test: thermal stability score vs G1/S (z-score of summed log2 fold changes over temperatures); higher = more thermally stable than in G1/S
[4] = tested on: HeLa Kyoto; test: melting temperature (median over replicates), in situ; higher = more thermally stable
[5] = cell cycle stage: early G1 (4.5 h after nocodazole release)
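For melting temperature (median over replicates), in situ in this document: HeLa Kyoto cells synchronized by double thymidine or nocodazole block, proteins quantified by TMT10plex mass spectrometry, three independent biological replicates.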
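For solubility change mitosis vs G1/S (difference of NP-40 vs SDS log2 ratios) in this document: synchronized HeLa Kyoto cells (double thymidine block for G1/S, nocodazole release for mitosis), protein amounts in NP-40 versus SDS lysates quantified by mass spectrometry, three biological replicates.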
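For solubility in G1/S (NP-40 vs SDS abundance) in this document: HeLa Kyoto cells arrested at G1/S by double thymidine block, proteins quantified by TMT10plex mass spectrometry in mild NP-40 versus SDS extracts, three biological replicates.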
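For thermal stability score vs G1/S (z-score of summed log2 fold changes over temperatures) in this document: synchronized HeLa Kyoto cells, proteins quantified by TMT10plex mass spectrometry, three biological replicates, mitosis taken 0.5 h after nocodazole release, G1/S directly after double thymidine block.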

VPS13D
solubility in G1/S (log2) [1]: -0.404 | solubility change mitosis (log2) [2]: -0.104 | thermal stability score [3, 5]: 0.236 | thermal stability score ([3]; cell cycle stage: mitosis): -0.0982

MSSECDGGSKAVMNGLAPGSNGQDKATADPLRARSISAVKIIPVKTVKNASGLVLPTDMDLTKICTGKGAVTLRASSSYRETPSSSPASPQETRQHESKPGLEPEPSSADEWRLSSSADANGNAQPSSLAAKGYRSVHPNLPSDKSQDATSSSAAQPEVIVVPLYLVNTDRGQEGTARPPTPLGPLGCVPTIPATASAASPLTFPTLDDFIPPHLQRWPHHSQPARASGSFAPISQTPPSFSPPPPLVPPAPEDLRRVSEPDLTGAVSSTDSSPLLNEVSSSLIGTDSQAFPSVSKPSSAYPSTTIVNPTIVLLQHNREQQKRLSSLSDPVSERRVGEQDSAPTQEKPTSPGKAIEKRAKDDSRRVVKSTQDLSDVSMDEVGIPLRNTERSKDWYKTMFKQIHKLNRDTPEENPYFPTYKFPELPEIQQTSEEDNPYTPTYQFPASTPSPKSEDDDSDLYSPRYSFSEDTKSPLSVPRSKSEMSYIDGEKVVKRSATLPLPARSSSLKSSSERNDWEPPDKKVDTRKYRAEPKSIYEYQPGKSSVLTNEKMSRDISPEEIDLKNEPWYKFFSELEFGKPPPKKIWDYTPGDCSILPREDRKTNLDKDLSLCQTELEADLEKMETLNKAPSANVPQSSAISPTPEISSETPGYIYSSNFHAVKRESDGAPGDLTSLENERQIYKSVLEGGDIPLQGLSGLKRPSSSASTKDSESPRHFIPADYLESTEEFIRRRHDDKEKLLADQRRLKREQEEADIAARRHTGVIPTHHQFITNERFGDLLNIDDTAKRKSGSEMRPARAKFDFKAQTLKELPLQKGDIVYIYKQIDQNWYEGEHHGRVGIFPRTYIELLPPAEKAQPKKLTPVQVLEYGEAIAKFNFNGDTQVEMSFRKGERITLLRQVDENWYEGRIPGTSRQGIFPITYVDVIKRPLVKNPVDYMDLPFSSSPSRSATASPQFSSHSKLITPAPSSLPHSRRALSPEMHAVTSEWISLTVGVPGRRSLALTPPLPPLPEASIYNTDHLALSPRASPSLSLSLPHLSWSDRPTPRSVASPLALPSPHKTYSLAPTSQASLHMNGDGGVHTPSSGIHQDSFLQLPLGSSDSVISQLSDAFSSQSKRQPWREESGQYERKAERGAGERGPGGPKISKKSCLKPSDVVRCLSTEQRLSDLNTPEESRPGKPLGSAFPGSEAEQTERHRGGEQAGRKAARRGGSQQPQAQQRRVTPDRSQTSQDLFSYQALYSYIPQNDDELELRDGDIVDVMEKCDDGWFVGTSRRTKQFGTFPGNYVKPLYL [SORBS1]
solubility in G1/S (log2) [1]: -0.0532 | solubility change mitosis (log2) [2]: 0.424 | thermal stability score [3, 5]: -0.134 | thermal stability score ([3]; cell cycle stage: mitosis): 4.08

MAGFAELGLSSWLVEQCRQLGLKQPTPVQLGCIPAILEGRDCLGCAKTGSGKTAAFVLPILQKLSEDPYGIFCLVLTPTRELAYQIAEQFRVLGKPLGLKDCIIVGGMDMVAQALELSRKPHVVIATPGRLADHLRSSNTFSIKKIRFLVMDEADRLLEQGCTDFTVDLEAILAAVPARRQTLLFSATLTDTLRELQGLATNQPFFWEAQAPVSTVEQLDQRYLLVPEKVKDAYLVHLIQRFQDEHEDWSIIIFTNTCKTCQILCMMLRKFSFPTVALHSMMKQKERFAALAKFKSSIYRILIATDVASRGLDIPTVQVVINHNTPGLPKIYIHRVGRTARAGRQGQAITLVTQYDIHLVHAIEEQIKKKLEEFSVEEAEVLQILTQVNVVRRECEIKLEAAHFDEKKEINKRKQLILEGKDPDLEAKRKAELAKIKQKNRRFKEKVEETLKRQKAGRAGHKGRPPRTPSGSHSGPVPSQGLV [DDX49]
solubility in G1/S (log2) [1]: -0.148 | solubility change mitosis (log2) [2]: -0.0629 | thermal stability score [3, 5]: 2.1 | thermal stability score ([3]; cell cycle stage: mitosis): 1.97

DYNC2H1
solubility in G1/S (log2) [1]: -0.273 | solubility change mitosis (log2) [2]: 0.0553 | thermal stability score [3, 5]: 0.756 | thermal stability score ([3]; cell cycle stage: mitosis): 0.972

MAGVGDAAAPGEGGGGGVDGPQRDGRGEAEQPGGSGGQGPPPAPQLTETLGFYESDRRRERRRGRTELSLLRFLSAELTRGYFLEHNEAKYTERRERVYTCLRIPRELEKLMVFGIFLCLDAFLYVFTLLPLRVFLALFRLLTLPCYGLRDRRLLQPAQVCDILKGVILVICYFMMHYVDYSMMYHLIRGQSVIKLYIIYNMLEVADRLFSSFGQDILDALYWTATEPKERKRAHIGVIPHFFMAVLYVFLHAILIMVQATTLNVAFNSHNKSLLTIMMSNNFVEIKGSVFKKFEKNNLFQMSNSDIKERFTNYVLLLIVCLRNMEQFSWNPDHLWVLFPDVCMVIASEIAVDIVKHAFITKFNDITADVYSEYRASLAFDLVSSRQKNAYTDYSDSVARRMGFIPLPLAVLLIRVVTSSIKVQGILSYACVILFYFGLISLKVLNSIVLLGKSCQYVKEAKMEEKLSNPPATCTPGKPSSKSQNKCKPSQGLSTEENLSASITKQPIHQKENIIPLLVTSNSDQFLTTPDGDEKDITQDNSELKHRSSKKDLLEIDRFTICGNRID [TAPT1]
solubility in G1/S (log2) [1]: -0.313 | solubility change mitosis (log2) [2]: 0.0176 | thermal stability score [3, 5]: -2.91 | thermal stability score ([3]; cell cycle stage: mitosis): -4.92

MGLSAAAPLWGPPGLLLAIALHPALSVPPRRDYCVLGAGPAGLQMAYFLQRAGRDYAVFERAPRPGSFFTRYPRHRKLISINKRYTGKANAEFNLRHDWNSLLSHDPRLLFRHYSRAYFPDARDMVRYLGDFADTLGLRVQYNTTIAHVTLDKDRQAWNGHYFILTDQKGQVHQCSVLFVATGLSVPNQVDFPGSEYAEGYESVSVDPEDFVGQNVLILGRGNSAFETAENILGVTNFIHMLSRSRVRLSWATHYVGDLRAINNGLLDTYQLKSLDGLLESDLTDLAILKDSKGKFHVTPKFFLEEANTNQSADSITLPQDDNDNFAMRVPYDRVIRCLGWNFDFSIFNKSLRLNSGNAFGKKYPLIRASYESKGSRGLFILGTASHSVDYRKSAGGFIHGFRYTVRAVHRLLEHRHHSVTWPATELPITQLTSSIVRRVNEASGLYQMFGVLADVILLKENSTAFEYLEEFPIQMLAQLETLTGRKAKHGLFVINMEYGRNFSGPDKDVFFDDRSVGHTEDAWQSNFLHPVIYYYRYLPTEQEVRFRPAHWPLPRPTAIHHIVEDFLTDWTAPIGHILPLRRFLENCLDTDLRSFYAESCFLFALTRQKLPPFCQQGYLRMQGLVSTESLWQHRVESRLLRDYAPTGRRLEDSSQQLGDQEPLGSPLAPGPLAQSVDSNKEEL [FOXRED2]
solubility in G1/S (log2) [1]: -0.0337 | solubility change mitosis (log2) [2]: 0.00992 | thermal stability score [3, 5]: 0.289 | thermal stability score ([3]; cell cycle stage: mitosis): 1.28

MARACLQAVKYLMFAFNLLFWLGGCGVLGVGIWLAATQGSFATLSSSFPSLSAANLLIITGAFVMAIGFVGCLGAIKENKCLLLTFFLLLLLVFLLEATIAILFFAYTDKIDRYAQQDLKKGLHLYGTQGNVGLTNAWSIIQTDFRCCGVSNYTDWFEVYNATRVPDSCCLEFSESCGLHAPGTWWKAPCYETVKVWLQENLLAVGIFGLCTALVQILGLTFAMTMYCQVVKADTYCA [TSPAN4]
solubility in G1/S (log2) [1]: -0.165 | solubility change mitosis (log2) [2]: 0.125 | thermal stability score [3, 5]: -5.28e-17 | thermal stability score ([3]; cell cycle stage: mitosis): 1.16e-18

MSRQTTSVGSSCLDLWREKNDRLVRQAKVAQNSGLTLRRQQLAQDALEGLRGLLHSLQGLPAAVPVLPLELTVTCNFIILRASLAQGFTEDQAQDIQRSLERVLETQEQQGPRLEQGLRELWDSVLRASCLLPELLSALHRLVGLQAALWLSADRLGDLALLLETLNGSQSGASKDLLLLLKTWSPPAEELDAPLTLQDAQGLKDVLLTAFAYRQGLQELITGNPDKALSSLHEAASGLCPRPVLVQVYTALGSCHRKMGNPQRALLYLVAALKEGSAWGPPLLEASRLYQQLGDTTAELESLELLVEALNVPCSSKAPQFLIEVELLLPPPDLASPLHCGTQSQTKHILASRCLQTGRAGDAAEHYLDLLALLLDSSEPRFSPPPSPPGPCMPEVFLEAAVALIQAGRAQDALTLCEELLSRTSSLLPKMSRLWEDARKGTKELPYCPLWVSATHLLQGQAWVQLGAQKVAISEFSRCLELLFRATPEEKEQGAAFNCEQGCKSDAALQQLRAAALISRGLEWVASGQDTKALQDFLLSVQMCPGNRDTYFHLLQTLKRLDRRDEATALWWRLEAQTKGSHEDALWSLPLYLESYLSWIRPSDRDAFLEEFRTSLPKSCDL [FANCG]
solubility in G1/S (log2) [1]: 0.138 | melting temperature ([4]; cell cycle stage: G1/S): 49.9 °C | melting temperature ([4]; cell cycle stage: mitosis): 48 °C | solubility change mitosis (log2) [2]: -0.0579

MDTSSVGGLELTDQTPVLLGSTAMATSLTNVGNSFSGPANPLVSRSNKFQNSSVEDDDDVVFIEPVQPPPPSVPVVADQRTITFTSSKNEELQGNDSKITPSSKELASQKGSVSETIVIDDEEDMETNQGQEKNSSNFIERRPPETKNRTNDVDFSTSSFSRSKVNAGMGNSGITTEPDSEIQIANVTTLETGVSSVNDGQLENTDGRDMNLMITHVTSLQNTNLGDVSNGLQSSNFGVNIQTYTPSLTSQTKTGVGPFNPGRMNVAGDVFQNGESATHHNPDSWISQSASFPRNQKQPGVDSLSPVASLPKQIFQPSVQQQPTKPVKVTCANCKKPLQKGQTAYQRKGSAHLFCSTTCLSSFSHKPAPKKLCVMCKKDITTMKGTIVAQVDSSESFQEFCSTSCLSLYEDKQNPTKGALNKSRCTICGKLTEIRHEVSFKNMTHKLCSDHCFNRYRMANGLIMNCCEQCGEYLPSKGAGNNVLVIDGQQKRFCCQSCVSEYKQVGSHPSFLKEVRDHMQDSFLMQPEKYGKLTTCTGCRTQCRFFDMTQCIGPNGYMEPYCSTACMNSHKTKYAKSQSLGIICHFCKRNSLPQYQATMPDGKLYNFCNSSCVAKFQALSMQSSPNGQFVAPSDIQLKCNYCKNSFCSKPEILEWENKVHQFCSKTCSDDYKKLHCIVTYCEYCQEEKTLHETVNFSGVKRPFCSEGCKLLYKQDFARRLGLRCVTCNYCSQLCKKGATKELDGVVRDFCSEDCCKKFQDWYYKAARCDCCKSQGTLKERVQWRGEMKHFCDQHCLLRFYCQQNEPNMTTQKGPENLHYDQGCQTSRTKMTGSAPPPSPTPNKEMKNKAVLCKPLTMTKATYCKPHMQTKSCQTDDTWRTEYVPVPIPVPVYIPVPMHMYSQNIPVPTTVPVPVPVPVFLPAPLDSSEKIPAAIEELKSKVSSDALDTELLTMTDMMSEDEGKTETTNINSVIIETDIIGSDLLKNSDPETQSSMPDVPYEPDLDIEIDFPRAAEELDMENEFLLPPVFGEEYEEQPRPRSKKKGAKRKAVSGYQSHDDSSDNSECSFPFKYTYGVNAWKHWVKTRQLDEDLLVLDELKSSKSVKLKEDLLSHTTAELNYGLAHFVNEIRRPNGENYAPDSIYYLCLGIQEYLCGSNRKDNIFIDPGYQTFEQELNKILRSWQPSILPDGSIFSRVEEDYLWRIKQLGSHSPVALLNTLFYFNTKYFGLKTVEQHLRLSFGTVFRHWKKNPLTMENKACLRYQVSSLCGTDNEDKITTGKRKHEDDEPVFEQIENTANPSRCPVKMFECYLSKSPQNLNQRMDVFYLQPECSSSTDSPVWYTSTSLDRNTLENMLVRVLLVKDIYDKDNYELDEDTD [ZMYM2]
solubility in G1/S (log2) [1]: -0.229 | melting temperature ([4]; cell cycle stage: G1/S): 49.3 °C | melting temperature ([4]; cell cycle stage: mitosis): 49.7 °C | solubility change mitosis (log2) [2]: 0.00298

TNRC6A
solubility in G1/S (log2) [1]: -0.225 | melting temperature ([4]; cell cycle stage: G1/S): 50.7 °C | solubility change mitosis (log2) [2]: -0.0232

MFHGIPATPGIGAPGNKPELYEEVKLYKNAREREKYDNMAELFAVVKTMQALEKAYIKDCVSPSEYTAACSRLLVQYKAAFRQVQGSEISSIDEFCRKFRLDCPLAMERIKEDRPITIKDDKGNLNRCIADVVSLFITVMDKLRLEIRAMDEIQPDLRELMETMHRMSHLPPDFEGRQTVSQWLQTLSGMSASDELDDSQVRQMLFDLESAYNAFNRFLHA [VPS28]
solubility in G1/S (log2) [1]: 0.19 | melting temperature ([4]; cell cycle stage: G1/S): 51.5 °C | solubility change mitosis (log2) [2]: 0.014

MTTSQKHRDFVAEPMGEKPVGSLAGIGEVLGKKLEERGFDKAYVVLGQFLVLKKDEDLFREWLKDTCGANAKQSRDCFGCLREWCDAFL [BANF1]
solubility in G1/S (log2) [1]: -1.48 | melting temperature ([4]; cell cycle stage: mitosis): 52.2 °C | solubility change mitosis (log2) [2]: 1.93

MGWSQDLFRALWRSLSREVKEHVGTDQFGNKYYYIPQYKNWRGQTIREKRIVEAANKKEVDYEAGDIPTEWEAWIRRTRKTPPTMEEILKNEKHREEIKIKSQDFYEKEKLLSKETSEELLPPPVQTQIKGHASAPYFGKEEPSVAPSSTGKTFQPGSWMPRDGKSHNQ [NDUFAF2]
solubility in G1/S (log2) [1]: 0.329 | melting temperature ([4]; cell cycle stage: G1/S): 55.5 °C | melting temperature ([4]; cell cycle stage: mitosis): 52.2 °C | solubility change mitosis (log2) [2]: 0.329
